Measurements taken from the RNAGym collection of RNA variant scans (doi:10.7554/elife.80360).

B1: HDV Ribozyme (parent)
chain: GGCCGGCAUGGUCCCAGCCUCCUCGCUGGCGCCGGCUGGGCAACAUUCCGAGGGGACCGUCCCCUCGGUAAUGGCGAAUGGGACCCA

Variants of: B1
Experiment: self-cleavage, relative activity (ratio to wild type); higher = more cleavage; co-transcriptional

| Variant | self-cleavage |
| --- | --- |
| GUCCGGCAUAGUCCCAGCCUCCUCGCUGGCGCCGGCUGGGCAACAUUCCGAGGGGACCGUCCCCUCGGUAAUGGCGAAUGGGACCCA | 0 |
| GUCCGGCAUCGUCCCAGCCUCCUCGCUGGCGCCGGCUGGGCAACAUUCCGAGGGGACCGUCCCCUCGGUAAUGGCGAAUGGGACCCA | 0.0621 |
| GUCCGGCAUGGUCCCAGCCUCCUCGCUGGCGCCGGCUGGGCAACAUUCCGAGGGGGCCGUCCCCUCGGUAAUGGCGAAUGGGACCCA | 0.0674 |
| GUCCGGCAUGGUCCCAGCCUCCUCGCUGGCGCCGGCUGGGCAACUUUCCGAGGGGACCGUCCCCUCGGUAAUGGCGAAUGGGACCCA | 0.0554 |
| GUCCGGCAUGGUCCCAGCCUCCUCGCUGGCGCCGGCUGGGCAACAUUCCGAGGGGACCGUCCCCUCGGUAAUGGCGAAUGGGACACA | 0.104 |
| GUUCGGCAUGGUCCCAGCCUCCUCGCUGGCGCCGGCUGGGCAACAUUCCGAGGGGACCGUCCCCUCGGUAAUGGCGAAUGGGACCCA | 0.0228 |
| GUGCGGCAUGGUCCCAGCCUCCUCGCUGGCGCCGGCUGGGCAACAUUCCGAGGGGACCGUCCCCUCGGUAAUGGCGAAUGGGACCCA | 0.0222 |
| GUCCGGCAUGGUCCCAGUCUCCUCGCUGGCGCCGGCUGGGCAACAUUCCGAGGGGACCGUCCCCUCGGUAAUGGCGAAUGGGACCCA | 0.0755 |
| GUCCGGCAUGGUCCCAGCCUCCUCGCUGGCGCCGGCUGGGCAACAUUCCGAGGGGACCGUCCCCUCGGUAAUGGAGAAUGGGACCCA | 0 |
| GUCCGGCAUGGUCCCAGCCUCCUCGCUGGCGCCGGCUGGGAAACAUUCCGAGGGGACCGUCCCCUCGGUAAUGGCGAAUGGGACCCA | 0.0589 |
| GUCCGGCAUGGUCCCAGCCUCCUCGUUGGCGCCGGCUGGGCAACAUUCCGAGGGGACCGUCCCCUCGGUAAUGGCGAAUGGGACCCA | 0.0852 |
| GUCCGGCAUGGUCCCAGCCUCCUCGCUGGCGCCGGCUGGGCAACAUUCCGAGGGGACCGUCCCCUCGGUAGUGGCGAAUGGGACCCA | 0.141 |
| GUCAGGCAUGGUCCCAGCCUCCUCGCUGGCGCCGGCUGGGCAACAUUCCGAGGGGACCGUCCCCUCGGUAAUGGCGAAUGGGACCCA | 0 |
| GUCUGGCAUGGUCCCAGCCUCCUCGCUGGCGCCGGCUGGGCAACAUUCCGAGGGGACCGUCCCCUCGGUAAUGGCGAAUGGGACCCA | 0.0755 |
| GUCCGGCAUGGUCCCAGCCUCCUCGCUGGCGCCGGCUGGGCAACAUUCCGAGGGGACCGUCCCCUCGGUAAUGGCGAAUGGGAACCA | 0.0219 |
| GUCCGGCAUGGUCCCAGCCUCCUCGCUGGCGCCGGCUGGGCAACAUUCCGAGGGGACCGUCCCCUCGGUAAUGGCGAAUGGGACCGA | 0.117 |

| Variant | self-cleavage |
| --- | --- |
| GUCCGGCAUGGUCCCAGCCUCCUCGCUGGCGCAGGCUGGGCAACAUUCCGAGGGGACCGUCCCCUCGGUAAUGGCGAAUGGGACCCA | 0.043 |
| GUCCGGCAUGGUCCCAGCCUCCUCGCUGGCGCGGGCUGGGCAACAUUCCGAGGGGACCGUCCCCUCGGUAAUGGCGAAUGGGACCCA | 0.00889 |
| GUCCGGCAUGGUCCCAGCCUCCUAGCUGGCGCCGGCUGGGCAACAUUCCGAGGGGACCGUCCCCUCGGUAAUGGCGAAUGGGACCCA | 0.0554 |
| GUCCGGCAUGGUCCCAGCCUCCUCGCUGGCGCCGGCUGGGCAACAUUCCGAGGGGACCGUCCCUUCGGUAAUGGCGAAUGGGACCCA | 0.111 |
| GUCCGGCAUGGUCCCAGCCUCCUCGCUGGCGCCGGCUGGGCAACAUUCCGAGGGGACCGUCCCAUCGGUAAUGGCGAAUGGGACCCA | 0.0339 |
| GUCCGGCAUGGUCCCAGCCUCCUCGCUGGCGCCGGCUGGGCAACAUUCCGAGGGGACUGUCCCCUCGGUAAUGGCGAAUGGGACCCA | 0.109 |
| GUCCGGCAUGGUCUCAGCCUCCUCGCUGGCGCCGGCUGGGCAACAUUCCGAGGGGACCGUCCCCUCGGUAAUGGCGAAUGGGACCCA | 0.0468 |
| GUCCGGCAUGGUCGCAGCCUCCUCGCUGGCGCCGGCUGGGCAACAUUCCGAGGGGACCGUCCCCUCGGUAAUGGCGAAUGGGACCCA | 0.0354 |
| GUCCGGCAUGGUCCCAGCCUCCUCGCUGGCGCCGGCUGGGCAACAUUCCGGGGGGACCGUCCCCUCGGUAAUGGCGAAUGGGACCCA | 0.0683 |
| GUCCGGCAUGGUCCCAGCCUCCUCGCUGGCGCCGGCUGGGCAGCAUUCCGAGGGGACCGUCCCCUCGGUAAUGGCGAAUGGGACCCA | 0.0205 |
| GUCCGGCAUGGUCCCAGCCUCCUCGCUGGCGCCGGCUGGGCAACAUUCCGAGGGGACCGUCCCCUCGGUAAUGGCGAAUGGGACCCU | 0.0747 |
| GUCCGGCAUGGUCCCAGCCUCCUCGCUGGCGCCGGCUGGGCAAUAUUCCGAGGGGACCGUCCCCUCGGUAAUGGCGAAUGGGACCCA | 0 |
| GUCCGGCAUGGUCCCAGCCUCCUCGCUGGCGCCGGCUGGGCAAAAUUCCGAGGGGACCGUCCCCUCGGUAAUGGCGAAUGGGACCCA | 0.0583 |
| GUCCGGGAUGGUCCCAGCCUCCUCGCUGGCGCCGGCUGGGCAACAUUCCGAGGGGACCGUCCCCUCGGUAAUGGCGAAUGGGACCCA | 0 |
| GUCCGGCAUGGUCCCAGCCUCCUCGCUGGCGCCGGCUGGGCAACAUUCCGAGGGGAUCGUCCCCUCGGUAAUGGCGAAUGGGACCCA | 0.0365 |
| GUCCGGCAUGGUCCCAGCCUCCUCGCUGGCGCCGGCUGGGCAACAUUCAGAGGGGACCGUCCCCUCGGUAAUGGCGAAUGGGACCCA | 0.118 |
